Results as given in PMC7337493 (The Journal of Cell Biology, 2020).

B1: FIP200NTD (domain or fragment, human, UniProt Q8TDY2 1-640, looked up)
chain: MKLYVFLVNTGTTLTFDTELTVQTVADLKHAIQSKYKIAIQHQVLVVNGGECMAADRRVCTYSAGTDTNPIFLFNKEMILCDRPPAIPKTTFSTENDMEIKVEESLMMPAVFHTVASRTQLALEMYEVAKKLCSFCEGLVHDEHLQHQGWAAIMANLEDCSNSYQKLLFKFESIYSNYLQSIEDIKLKLTHLGTAVSVMAKIPLLECLTRHSYRECLGRLDSLPEHEDSEKAEMKRSTELVLSPDMPRTTNESLLTSFPKSVEHVSPDTADAESGKEIRESCQSTVHQQDETTIDTKDGDLPFFNVSLLDWINVQDRPNDVESLVRKCFDSMSRLDPRIIRPFIAECRQTIAKLDNQNMKAIKGLEDRLYALDQMIASCGRLVNEQKELAQGFLANQKRAENLKDASVLPDLCLSHANQLMIMLQNHRKLLDIKQKCTTAKQELANNLHVRLKWCCFVMLHADQDGEKLQALLRLVIELLERVKIVEALSTVPQMYCLAVVEVVRRKMFIKHYREWAGALVKDGKRLYEAEKSKRESFGKLFRKSFLRNRLFRGLDSWPPSFCTQKPRKFDCELPDISLKDLQFLQSFCPSEVQPFLRVPLLCDFEPLHQHVLALHNLVKAAQSLDEMSQTITDLLSEQK
notes: FIP200 (RB1CC1), human, N-terminal domain, residues 1-640 of 1,594; the form printed without a tag in NSEM, MALS, HDX-MS and cryo-EM samples; also called FIP200 N-terminal domain; untagged FIP200NTD

Tests used:
[1] = target: the molecule itself; assay: SEC-MALS; Superose 6 Increase 10/300 GL; 50 mM Tris, 150 mM NaCl, 1 mM TCEP, pH 7.8; sample ~6–10 µM, 100 µl injected
[2] = target: the molecule itself; assay: negative stain EM; purified samples diluted to ~50–200 nM, uranyl acetate stain, 2D classification; MBP tags used to mark positions
[3] = target: B1; assay: SEC-MALS; Superose 6 Increase 10/300 GL; 50 mM Tris, 150 mM NaCl, 1 mM TCEP, pH 7.8; sample ~6–10 µM, 100 µl injected; conditions: both partners purified
[4] = target: B1; assay: negative stain EM; purified samples diluted to ~50–200 nM, uranyl acetate stain, 2D classification; MBP tags used to mark positions; conditions: both partners purified

| Binder | stoichiometry N [2] | stoichiometry N [3] | other results |
| --- | --- | --- | --- |
| B1 |  |  | stoichiometry N [1]: 2 |
| MBP-FIP200NTD (domain or fragment, human, UniProt Q8TDY2 1-640, looked up, FIP200 (RB1CC1), human, N-terminal domain, residues 1-640; also called N-terminal MBP–tagged FIP200NTD; not shown: MBP, N-terminal, kept) MKLYVFLVNTGTTLTFDTELTVQTVADLKHAIQSKYKIAIQHQVLVVNGGECMAADRRVCTYSAGTDTNPIFLFNKEMILCDRPPAIPKTTFSTENDMEIKVEESLMMPAVFHTVASRTQLALEMYEVAKKLCSFCEGLVHDEHLQHQGWAAIMANLEDCSNSYQKLLFKFESIYSNYLQSIEDIKLKLTHLGTAVSVMAKIPLLECLTRHSYRECLGRLDSLPEHEDSEKAEMKRSTELVLSPDMPRTTNESLLTSFPKSVEHVSPDTADAESGKEIRESCQSTVHQQDETTIDTKDGDLPFFNVSLLDWINVQDRPNDVESLVRKCFDSMSRLDPRIIRPFIAECRQTIAKLDNQNMKAIKGLEDRLYALDQMIASCGRLVNEQKELAQGFLANQKRAENLKDASVLPDLCLSHANQLMIMLQNHRKLLDIKQKCTTAKQELANNLHVRLKWCCFVMLHADQDGEKLQALLRLVIELLERVKIVEALSTVPQMYCLAVVEVVRRKMFIKHYREWAGALVKDGKRLYEAEKSKRESFGKLFRKSFLRNRLFRGLDSWPPSFCTQKPRKFDCELPDISLKDLQFLQSFCPSEVQPFLRVPLLCDFEPLHQHVLALHNLVKAAQSLDEMSQTITDLLSEQK | 2 |  |  |
| MBP-ATG13MR (domain or fragment, human, UniProt O75143 363-460, looked up, ATG13, human, middle region, residues 363-460; not shown: MBP, N-terminal, kept) HDVLETIFVRKVGAFVNKPINQVTLTSLDIPFAMFAPKNLELEDTDPMVNPPDSPETESPLQGSLHSDGSSGGSSGNTHDDFVMIDFKPAFSKDDILP |  | 0.5 molecules per molecule of FIP200NTD (2:1 FIP200NTD:binder) | stoichiometry N [4]: 1 per FIP200NTD dimer |
| ATG13(363-C) (domain or fragment, human, UniProt O75143 363-517, looked up, ATG13, human, residue 363 to the C terminus) HDVLETIFVRKVGAFVNKPINQVTLTSLDIPFAMFAPKNLELEDTDPMVNPPDSPETESPLQGSLHSDGSSGGSSGNTHDDFVMIDFKPAFSKDDILPMDLGTFYREFQNPPQLSSLSIDIGAQSMAEDLDSLPEKLAVHEKNVREFDAFVETLQ |  | 0.5 molecules per molecule of FIP200NTD (2:1 FIP200NTD:binder) |  |
| FIP200NTD–MBP (domain or fragment, human, UniProt Q8TDY2 1-640, looked up, FIP200 (RB1CC1), human, N-terminal domain, residues 1-640 of 1,594; also called FIP200(N-640)–MBP; FIP200-MBP; not shown: GST, N-terminal, cleaved; MBP, C-terminal, kept) MKLYVFLVNTGTTLTFDTELTVQTVADLKHAIQSKYKIAIQHQVLVVNGGECMAADRRVCTYSAGTDTNPIFLFNKEMILCDRPPAIPKTTFSTENDMEIKVEESLMMPAVFHTVASRTQLALEMYEVAKKLCSFCEGLVHDEHLQHQGWAAIMANLEDCSNSYQKLLFKFESIYSNYLQSIEDIKLKLTHLGTAVSVMAKIPLLECLTRHSYRECLGRLDSLPEHEDSEKAEMKRSTELVLSPDMPRTTNESLLTSFPKSVEHVSPDTADAESGKEIRESCQSTVHQQDETTIDTKDGDLPFFNVSLLDWINVQDRPNDVESLVRKCFDSMSRLDPRIIRPFIAECRQTIAKLDNQNMKAIKGLEDRLYALDQMIASCGRLVNEQKELAQGFLANQKRAENLKDASVLPDLCLSHANQLMIMLQNHRKLLDIKQKCTTAKQELANNLHVRLKWCCFVMLHADQDGEKLQALLRLVIELLERVKIVEALSTVPQMYCLAVVEVVRRKMFIKHYREWAGALVKDGKRLYEAEKSKRESFGKLFRKSFLRNRLFRGLDSWPPSFCTQKPRKFDCELPDISLKDLQFLQSFCPSEVQPFLRVPLLCDFEPLHQHVLALHNLVKAAQSLDEMSQTITDLLSEQK | 2 |  |  |
